This experiment addresses T1, GST-tagged Drosophila Su(H) (Drosophila melanogaster, UniProt P28159 1-594).
T1 construct: Suppressor of Hairless [Su(H)], Drosophila melanogaster; construct GST-Su(H) pGEX-KG of Bailey and Posakony, 1995; also called GST-Su(H); Suppressor of Hairless; source: E. coli, isolated, on Sepharose beads
Description: pull-down; in vitro; Sepharose beads bearing GST-Su(H) or only GST, His-tagged Hairless or S-CAP segments in solution; Ptep S-CAP also at 10X input. The settings on record: both partners purified.

T1 sequence (P28159 whole entry): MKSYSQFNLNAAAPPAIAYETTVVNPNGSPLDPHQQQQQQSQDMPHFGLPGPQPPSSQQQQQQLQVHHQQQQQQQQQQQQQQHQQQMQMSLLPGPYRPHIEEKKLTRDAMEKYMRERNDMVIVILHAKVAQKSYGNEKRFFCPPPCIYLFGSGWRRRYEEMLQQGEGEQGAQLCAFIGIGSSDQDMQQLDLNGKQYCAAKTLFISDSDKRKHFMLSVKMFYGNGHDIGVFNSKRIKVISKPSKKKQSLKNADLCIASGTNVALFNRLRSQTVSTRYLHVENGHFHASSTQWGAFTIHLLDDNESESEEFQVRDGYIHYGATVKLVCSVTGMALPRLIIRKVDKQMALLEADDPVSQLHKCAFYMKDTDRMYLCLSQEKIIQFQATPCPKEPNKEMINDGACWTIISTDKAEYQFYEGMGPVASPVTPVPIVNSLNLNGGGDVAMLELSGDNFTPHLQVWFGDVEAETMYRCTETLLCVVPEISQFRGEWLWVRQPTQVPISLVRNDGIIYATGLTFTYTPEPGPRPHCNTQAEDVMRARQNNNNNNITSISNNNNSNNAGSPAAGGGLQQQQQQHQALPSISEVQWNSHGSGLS

B1: His-tagged Parasteatoda tepidariorum S-CAP residues 233-432, wild type (domain or fragment)
chain: TVNTEDPPKDSINFLDHSRVTDPCSAASETSLPQDVPATSTVGSLKFFLGGRLVLKLNAQQDGGSGNKCQWVQSNDLPKHSNHNKKDKHKKKFAPYSYSSSGTQKPLKKGDDTSAVPDCDPSGIKKPRLKEYETSENSALGLLLCSSSWTPPVADGQESIDVDDTSSKTSEGYISPILSNNSRTSKIDTIKHDFASNPNT
notes: 200 residues, fits 233-432; Su(H)-Co-repressor Adaptor Protein (S-CAP), house spider Parasteatoda tepidariorum, residues 233-432 with the SBD-like motif; same vector and leader as m9; also called HIS-PtepSCAP233-432 WT; Ptep s-CAP233-432 WT; source: E. coli (codon-optimized for expression in E. coli, pRSET-C), isolated
With B1, the binding result is “binds”.

B2: His-tagged Drosophila melanogaster Hairless residues 192-389, wild type (domain or fragment)
chain: AVVAAAAGTAKIGKGSNSGGSFDMGRTPISTHGNNSWGGYGGRLQFFKDGKFILELARSKDGDKSGWVSVTRKTFRPPSAATSATVTPTSAVTTAYPKNENSTSLSFSDDNSSIQSSPWQRDQPWKQSRPRRGISKELSLFFHRPRNSTLGRAALRTAARKRRRPHEPLTTSEDQQPIFATAIKAENGDDTLKAEAAE
notes: 198 residues, fits 192-389 and L235, F237, L245, L247, W258; the printed DNA starts with linker codons R-W-I-R before the insert; also called HIS-H192-389 WT; Dmel Hairless192-389 WT; source: E. coli (codon-optimized for expression in E. coli, pRSET-C), isolated
Turning to B2, the binding result was “binds”.

Source of the values: PMC6777938, “Evolutionary emergence of Hairless as a novel component of the Notch signaling pathway” (eLife, 2019).
